One block for each substance: values may come before it.
Experiments:
[1] = biological target: heteromeric CNGA1/CNGB1 channels (UniProt Q00194); test: patch-clamp fluorometry
eCFP-CNGB1 = eCFP-CNGB1 (UniProt Q28181); test: FRET or BRET
CNGA1-eYFP = CNGA1-eYFP (UniProt Q00194); test: FRET or BRET
Sequence of CNGA1-eYFP (Q00194 whole entry K2E): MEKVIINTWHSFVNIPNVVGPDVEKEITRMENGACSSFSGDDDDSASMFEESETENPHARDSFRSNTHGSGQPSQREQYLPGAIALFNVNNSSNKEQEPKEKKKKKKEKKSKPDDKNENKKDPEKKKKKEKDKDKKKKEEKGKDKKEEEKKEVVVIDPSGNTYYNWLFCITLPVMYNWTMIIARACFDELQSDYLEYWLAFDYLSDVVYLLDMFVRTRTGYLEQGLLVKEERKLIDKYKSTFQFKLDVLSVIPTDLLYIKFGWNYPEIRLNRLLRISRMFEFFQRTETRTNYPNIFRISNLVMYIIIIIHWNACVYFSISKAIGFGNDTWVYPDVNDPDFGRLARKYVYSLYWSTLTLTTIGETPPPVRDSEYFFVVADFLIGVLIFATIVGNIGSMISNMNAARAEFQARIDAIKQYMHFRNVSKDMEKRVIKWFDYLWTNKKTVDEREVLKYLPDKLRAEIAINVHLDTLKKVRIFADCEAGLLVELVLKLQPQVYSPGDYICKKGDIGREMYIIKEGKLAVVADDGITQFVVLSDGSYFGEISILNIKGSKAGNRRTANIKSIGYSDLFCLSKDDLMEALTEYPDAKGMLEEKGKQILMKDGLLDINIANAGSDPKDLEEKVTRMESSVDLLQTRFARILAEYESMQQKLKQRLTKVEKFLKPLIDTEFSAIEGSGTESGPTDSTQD

Sequence of heteromeric CNGA1/CNGB1 channels (Q00194 whole entry K2E, chain 1 of 2): as the sequence (Q00194 whole entry K2E) above
Sequence of heteromeric CNGA1/CNGB1 channels (Q28181 whole entry, chain 2 of 2, further chain): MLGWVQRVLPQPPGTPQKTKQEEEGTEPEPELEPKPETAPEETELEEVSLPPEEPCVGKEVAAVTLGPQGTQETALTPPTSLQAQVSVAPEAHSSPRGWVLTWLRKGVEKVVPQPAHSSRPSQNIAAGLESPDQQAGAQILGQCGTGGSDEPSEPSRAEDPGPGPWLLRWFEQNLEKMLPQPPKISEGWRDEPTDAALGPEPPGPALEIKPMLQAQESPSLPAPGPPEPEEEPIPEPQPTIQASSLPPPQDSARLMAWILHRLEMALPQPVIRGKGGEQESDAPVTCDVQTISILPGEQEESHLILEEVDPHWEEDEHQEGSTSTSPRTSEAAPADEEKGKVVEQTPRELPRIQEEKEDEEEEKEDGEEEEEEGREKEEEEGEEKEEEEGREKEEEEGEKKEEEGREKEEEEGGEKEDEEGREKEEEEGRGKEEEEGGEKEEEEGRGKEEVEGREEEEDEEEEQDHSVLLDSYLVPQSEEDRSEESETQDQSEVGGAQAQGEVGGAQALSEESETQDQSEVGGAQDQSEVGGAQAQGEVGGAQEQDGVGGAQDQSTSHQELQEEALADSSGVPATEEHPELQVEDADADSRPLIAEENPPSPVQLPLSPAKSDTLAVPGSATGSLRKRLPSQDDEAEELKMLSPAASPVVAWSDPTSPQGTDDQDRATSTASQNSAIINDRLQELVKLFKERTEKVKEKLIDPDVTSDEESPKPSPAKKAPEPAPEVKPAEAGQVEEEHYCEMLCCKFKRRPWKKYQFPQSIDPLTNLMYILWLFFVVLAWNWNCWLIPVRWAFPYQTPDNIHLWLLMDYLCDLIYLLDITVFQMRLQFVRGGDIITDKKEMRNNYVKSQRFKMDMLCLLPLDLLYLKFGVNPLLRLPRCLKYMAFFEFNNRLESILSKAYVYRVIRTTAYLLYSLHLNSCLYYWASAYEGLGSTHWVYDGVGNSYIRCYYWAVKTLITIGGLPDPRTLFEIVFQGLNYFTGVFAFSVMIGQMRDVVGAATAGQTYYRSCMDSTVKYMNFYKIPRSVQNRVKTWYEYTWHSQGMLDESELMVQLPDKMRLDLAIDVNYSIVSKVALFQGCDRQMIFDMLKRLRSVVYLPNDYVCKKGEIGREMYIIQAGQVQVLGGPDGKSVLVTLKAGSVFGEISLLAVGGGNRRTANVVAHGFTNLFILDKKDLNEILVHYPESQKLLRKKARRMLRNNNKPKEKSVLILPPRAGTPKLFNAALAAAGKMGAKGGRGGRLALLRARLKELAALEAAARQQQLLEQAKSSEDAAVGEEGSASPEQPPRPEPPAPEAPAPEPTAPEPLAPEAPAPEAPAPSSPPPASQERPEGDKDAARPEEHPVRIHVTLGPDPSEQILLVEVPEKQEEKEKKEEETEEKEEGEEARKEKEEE
Sequence of eCFP-CNGB1 (UniProt Q28181) (Q28181 whole entry): as the sequence (Q28181 whole entry, chain 2 of 2, further chain) above
Sequence of eCFPΔCaM-CNGB1 (Q28181 whole entry, stated change not applied, the tested form may be a part): as the sequence (Q28181 whole entry, chain 2 of 2, further chain) above
Sequence of eCFP-CNGB1 (from UniProt Q28181 677-1394) (domain or fragment) (Q28181 whole entry, the tested form may be a part): as the sequence (Q28181 whole entry, chain 2 of 2, further chain) above

time constant of fluorescence decrease (washout in Ca2+-free solution) [1]: 51 s
time constant of fluorescence increase (250 nM CaM-488) [1]: 18.5 s
time constant of eCFP quenching (250 nM CaM-488) (eCFP-CNGB1): 24.6 s
Substance: CaM conjugated to the fluorescent dye Alexa-488 (from UniProt P62157 1-149) (natural protein)

F530/F480 ratio (initial, before Ca2+/CaM) (CNGA1-eYFP): 1.8
Substance: eCFP-CNGB1 (from UniProt Q28181 677-1394) (domain or fragment)

reduction in FRET against eCFP-CNGB1 (CNGA1-eYFP): 29%
Substance: eCFPΔCaM-CNGB1 (from UniProt Q28181 702-1394) (domain or fragment)
